Source: patent publication US20240209039A1 (RIKEN, published 2024)
Substitutions are numbered along the chain they refer to. Names may count otherwise.

B1: StayGold (CU17S/V168A mutant) (other)
chain: MASTPFKFQLKGTINGKSFTVEGEGEGNSHEGSHKGKYVCTSGKLPMSWAALGTSFGYGMKYYTKYPSGLKNWFHEVMPEGFTYDRHIQYKGDGSIHAKHQHFMKNGTYHNIVEFTGQDFKENSPVLTGDMNVSLPNEVQHIPRDDGVECPVTLLYPLLSDKSKCVEAHQNTICKPLHNQPAPDVPYHWIRKQYTQSKDDTEERDHICQSETLEAHL
notes: Made in E. coli JM109 (DE3) and purified on Ni-NTA; also called StayGold (dimer); not shown: N-terminal histidine tag from the pRSETB vector (purified on Ni-NTA)
B2: StayGold L155T (other)
chain: B1 chain with L155T
notes: not shown: histidine tag implied by Ni-NTA purification
B3: StayGold Y187A (other)
chain: B1 chain with Y187A
notes: as for B2

Legend:
[1] = target: the molecule itself; test: pseudo-native PAGE, self-association (homodimer), FIG. 17
[2] = target: the molecule itself; test: pseudo-native PAGE (10% acrylamide, 0.1% SDS, no heat treatment), self-association
Method: After purification of the proteins with use of Ni-NTA, pseudo-native PAGE was carried out. The separation gel contained 10% acrylamide and 0.1% SDS. The sample buffer contained 2% SDS and 100 mM DTT. No heat treatment was carried out.

Protein | binding result [1] | binding result [2]
B1 | binds | 
B2 |  | no binding
B3 |  | no binding
